Here are results for one substance from paper PMC12120876.

The target in the assay is nLUC‐TaWUS‐like‐5D (wheat (Triticum aestivum)). The assay can be described thus: split reporter.

Substance SnRK1‐4B‐cLUC (natural protein) returned a luminescence signal, fold over the other three pairs of co-infiltration samples of 5 fold.
